The target in test [1] is RNA polymerase β subunit (in the purified holoenzyme) (E. coli, UniProt P0A8V2 1-1342). The test can be described thus: cryo-EM structure.
In another test the target is σ70 (purified) (E. coli, UniProt P00579 1-613). Briefly: cryo-EM structure.
Chain of σ70 (purified) (P00579 whole entry): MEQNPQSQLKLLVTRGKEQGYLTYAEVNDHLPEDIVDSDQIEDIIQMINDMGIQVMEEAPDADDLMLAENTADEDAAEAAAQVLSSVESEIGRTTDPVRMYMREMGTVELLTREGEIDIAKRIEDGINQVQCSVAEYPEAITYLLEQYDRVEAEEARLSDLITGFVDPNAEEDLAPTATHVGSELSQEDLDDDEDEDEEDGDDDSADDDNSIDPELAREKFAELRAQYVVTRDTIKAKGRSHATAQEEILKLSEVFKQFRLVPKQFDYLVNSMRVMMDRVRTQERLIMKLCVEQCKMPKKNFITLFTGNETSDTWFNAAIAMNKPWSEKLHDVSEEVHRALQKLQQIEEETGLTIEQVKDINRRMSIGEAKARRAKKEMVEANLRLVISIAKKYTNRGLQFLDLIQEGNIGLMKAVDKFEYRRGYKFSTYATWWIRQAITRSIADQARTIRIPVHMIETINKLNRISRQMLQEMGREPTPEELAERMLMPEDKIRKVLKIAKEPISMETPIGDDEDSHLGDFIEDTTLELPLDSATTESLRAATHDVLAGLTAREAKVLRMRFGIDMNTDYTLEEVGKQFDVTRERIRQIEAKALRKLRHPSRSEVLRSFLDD

Chain of RNA polymerase β subunit (in the purified holoenzyme) (P0A8V2 whole entry): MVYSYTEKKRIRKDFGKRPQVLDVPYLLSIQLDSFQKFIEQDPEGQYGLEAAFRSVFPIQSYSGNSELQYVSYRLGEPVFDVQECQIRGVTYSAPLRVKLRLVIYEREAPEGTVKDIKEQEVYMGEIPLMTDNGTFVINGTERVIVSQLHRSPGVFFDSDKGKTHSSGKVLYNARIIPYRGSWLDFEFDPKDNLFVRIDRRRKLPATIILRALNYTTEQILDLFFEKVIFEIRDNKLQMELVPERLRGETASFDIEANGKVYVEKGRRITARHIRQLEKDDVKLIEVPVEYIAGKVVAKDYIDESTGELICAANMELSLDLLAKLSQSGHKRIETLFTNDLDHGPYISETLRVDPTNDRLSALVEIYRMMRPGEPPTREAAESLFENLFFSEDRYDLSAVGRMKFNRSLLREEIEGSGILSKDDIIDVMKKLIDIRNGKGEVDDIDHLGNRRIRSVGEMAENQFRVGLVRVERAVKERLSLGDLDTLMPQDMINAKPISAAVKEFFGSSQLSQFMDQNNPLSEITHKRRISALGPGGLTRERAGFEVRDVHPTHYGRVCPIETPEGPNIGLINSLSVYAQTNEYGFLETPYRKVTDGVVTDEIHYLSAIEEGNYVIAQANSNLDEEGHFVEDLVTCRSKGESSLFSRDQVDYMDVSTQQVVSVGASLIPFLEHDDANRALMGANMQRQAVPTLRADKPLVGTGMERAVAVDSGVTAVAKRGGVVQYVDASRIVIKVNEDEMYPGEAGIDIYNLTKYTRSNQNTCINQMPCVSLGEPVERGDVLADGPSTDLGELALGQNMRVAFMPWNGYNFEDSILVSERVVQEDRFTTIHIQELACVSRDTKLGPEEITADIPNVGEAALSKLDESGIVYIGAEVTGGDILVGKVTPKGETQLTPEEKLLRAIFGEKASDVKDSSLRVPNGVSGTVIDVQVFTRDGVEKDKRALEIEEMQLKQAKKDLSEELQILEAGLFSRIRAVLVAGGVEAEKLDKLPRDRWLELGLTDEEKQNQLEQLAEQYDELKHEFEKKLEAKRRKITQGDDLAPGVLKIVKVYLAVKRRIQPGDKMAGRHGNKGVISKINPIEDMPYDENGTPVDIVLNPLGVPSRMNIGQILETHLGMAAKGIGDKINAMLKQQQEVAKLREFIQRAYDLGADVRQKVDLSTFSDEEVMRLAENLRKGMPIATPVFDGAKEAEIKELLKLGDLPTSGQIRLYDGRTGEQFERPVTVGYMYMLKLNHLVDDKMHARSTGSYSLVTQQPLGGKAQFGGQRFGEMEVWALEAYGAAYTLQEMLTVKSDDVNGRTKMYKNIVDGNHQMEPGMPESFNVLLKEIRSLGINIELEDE

B1: CedA (purified recombinant) (natural protein)
chain: MKKPLRQQNRQIISYVPRTEPAPPEHAIKMDSFRDVWMLRGKYVAFVLMGESFLRSPAFTVPESAQRWANQIRQEGEVTE
For B1, the binding result (in test [1]; with σ70 (purified)) was “binds” throughout.

For the origin of these results see publication doi:10.1101/2023.09.17.558134 (bioRxiv, 2023).
